Paper doi:10.1101/2025.10.04.680452 (bioRxiv, 2025)
Where “and” joins values, the source holds several entries; their conditions need not be identical. Equal entries are not always repeated.

Target: the molecule itself
Assay: cryo-EM structure

B1: human mitochondrial group I chaperonin mHsp60, wild type (natural protein)
chain: GSAKDVKFGADARALMLQGVDLLADAVAVTMGPKGRTVIIEQSWGSPKVTKDGVTVAKSIDLKDKYKNIGAKLVQDVANNTNEEAGDGTTTATVLARSIAKEGFEKISKGANPVEIRRGVMLAVDAVIAELKKQSKPVTTPEEIAQVATISANGDKEIGNIISDAMKKVGRKGVITVKDGKTLNDELEIIEGMKFDRGYISPYFINTSKGQKCEFQDAYVLLSEKKISSIQSIVPALEIANAHRKPLVIIAEDVDGEALSTLVLNRLKVGLQVVAVKAPGFGDNRKNQLKDMAIATGGAVFGEEGLTLNLEDVQPHDLGKVGEVIVTKDDAMLLKGKGDKAQIEKRIQEIIEQLDVTTSEYEKEKLNERLAKLSDGVAVLKVGGTSDVEVNEKKDRVTDALNATRAAVEEGIVLGGGCALLRCIPALDSLTPANEDQKIGIEIIKRTLKIPAMTIAKNAGVEGSLIVEKIMQSSSEVGYDAMAGDFVNMVEKGIIDPTKVVRTALLDAAGVASLLTTAEVVVTEIPKEEKDPGMGAMGGMGGGMGGGMF
- stoichiometry N: 7 and 14
